Patent US8691960B2, “Oxidoreductases for enantioselective reactions” (Duke University, priority 2012, dated 2014)
Entries after “also recorded” stand apart in the source; their conditions may differ.

Tests used:
Type in all cases: biochemical
[1] = Enantiospecific LC-MS/MS quantification of (R)- and (S)-2-hydroxyadipate product; conditions: TtHIDH, 2 h
Experimental: Quantitative, enantiospecific LC-MS/MS was performed based on the procedure described for 2-hydroxyglutarate. Jin et al., PLoS one 6, e16812: 1-8 (2011); Struys, et al., Clin. Chem. 50: 1391-1395 (2004). To 20 μL of reaction mix, 2 μL of 130 μg/mL of a racemic mixture of [3,3,4,4-^2H4]-2-hydroxyglutarate (internal standard) in water was added and the mixture dried by vacuum centrifuge (50° C., 15 min). The dry residue was treated with 50 mg/mL freshly prepared diacetyl-L-tartaric anhydride (Sigma) in dichloromethane/glacial acetic acid (4:1 by volume) and heated (75° C., 30 min). After drying (50° C., 15 min) the residue was dissolved in 100 μL of LC mobile phase A (see below) for analysis. An Agilent 1200 series HPLC (Santa Clara, Calif.) was used for liquid chromatography (LC) and a Sciex/Applied Biosystems API 3200 QTrap (Carlsbad, Calif.) was used for triple quadrupole mass spectrometry (MS/MS). Mobile phase A: water, 3% acetonitrile, 280 μL ammonium hydroxide (^˜25%), pH adjusted to 3.6 with formic acid (^˜98%). Mobile phase B: methanol. Analytical column: Kinetex C-18, 150×4.6 mm, 2.6 μm, and SafeGuard C-18 4×3 mm guard-column from Phenomenex (Torrance, Calif.). Column temperature: 45° C. Elution gradient at 1 mL/min flow rate: 0-1 min 0% B, 1-2 min 0-100% B, 2-3.5 min 100% B, 3.5-4 min 100-0% B, 4-10 min 0% B. Injection volume: 10 μL. Q1/Q3 (m/z) transitions were monitored: 377/161, 2-hydroxyadipate (2HA) and 367/151, [3,3,4,4-^2H4]-2-hydroxyglutarate (2HG-d4). To calibrate, 0, 0.16, 0.54, 1.8, 6, and 20 μg/mL 2-hydroxyadipate (Sigma), synthesized as described above, was analyzed in reaction buffer. (R)- and (S)-enantiomers were discriminated based on time of elution from the HPLC column, using the relative elution time for (R)-2-hydroxyglutarate compared to the racemic mixture of 2-hydroxyglutarate described previously to identify the (R)-2-hydroxyadipate enantiomer. Jin et al., PLoS one 6, e16812: 1-8 (2011). Standards were analyzed alongside experimental samples. Accuracy acceptance criteria were 85% for all but the lowest level (0.16 μg/mL, 80%).

[2] = NADH oxidation with 2-oxoadipate plus CO2 added as NaHCO3 (reductive carboxylation)
Experimental: (§1) NADH, 2-oxoadipate, 2-oxoglutarate, 2-heptandioate, and MgCl2 were from Sigma. Standard reaction mixes contained 15 mM 2-oxoadipate, 100 μM NADH, and a reaction buffer with final concentrations of 20 mM MgCl2 and 500 mM HEPES, pH 7.3. NADH oxidation was monitored by the decrease in fluorescence with excitation of 340 nm and emission of 450 nm on a PolarSTAR Optima plate reader (BMG Labtech). Fluorescence monitored reactions were carried out in 10-μL volumes in a 384-well black microplate (Greiner 788076) covered with clear optical film. The levels of fluorescence were converted to NADH concentrations based on standards of NADH in reaction buffer containing BSA. Reactions with high amounts of NADH were monitored by the UV absorbance of NADH at 340 nm in 40-μL reaction volumes in clear 96-well plates.
(§2) Reaction rates are NADH oxidation per unit time per unit of purified enzyme or crude lysate and 1 Unit (U) is 1 μmolNADH min^−1 mgenzyme^−1. Rates are initial rates calculated by least squares linear regression on the first 10 minutes of the reaction. For KM determination, concentrations of substrate/cofactors at least 5×-higher than the KM were used, while the species of interest was varied in concentration; substrate/cofactor concentrations: 500 μM NADH; 15 mM 2-oxoadipate; 20 mM MgCl2. Reported α-hydroxyadipate (2-hydroxy adpic acid) Vmax values were obtained from 2-oxoadipate KM determination experiments. Michaelis-Menten KM and Vmax parameters were estimated by fitting data to a curve using nonlinear regression in GraphPad Prism 5.0 (GraphPad Software, La Jolla, Calif.).

[3] = NADH oxidation rate of purified HIDH enzymes with 2-oxoadipate (fluorescence / UV 340 nm); conditions: 100 μM NADH
Experimental: as §1, §2
Assays were performed with 40 ng/μL enzyme, 15 mM 2-oxoadipate, 100 μM NADH, 20 mM MgCl2 and 100 mM HEPES, pH 7.3 in 10 or 20 μL volumes in 384-well black microplates. NADH concentration was monitored by the decrease in fluorescence (excitation wavelength: 340 nm; emission wavelength: 450 nm) on a fluorescent plate reader. The fluorescence intensities were converted to NADH concentrations based on NADH standards. Reactions with high amounts of NADH (>300 μM) were monitored by the UV absorbance of NADH at 340 nm in a 40 μL reaction volume in a clear 96-well plate on the same plate reader. Reactions with ScHIDH were carried out at 25° C. and reactions with TtHIDH were carried out at 45° C. Reported rates are initial rates from the first 10 minutes of reaction. For KM determination, concentrations of substrate at least 5×-higher than the KM were used (for NADH, 500 μM; for 2-oxoadipate, 15 mM) while the substrate of interest was varied in concentration. KM and Vmax were estimated by fitting data to equation (1) using nonlinear regression, where x is substrate concentration and y is the rate. y=Vmax·x/KM+x (1) Rate data for ScHIDH-R143C, -R143H, and -R143K are summarized in Table 3.

[4] = 2-hydroxyadipate dehydrogenase activity of crude bacterial lysates expressing ScHIDH mutants; conditions: 100 μM NADH substrate
Experimental: To obtain crude lysates, 0.5 mL of starter cultures generated as described above were added to 4.5 mL LB-Amp, shaken for 2 h, and shaken for an additional 2 h after induction with 1 mM IPTG. Pellets from these cultures were harvested by centrifugation at 4500×g at 4° C. These pellets were resuspended into 500 μL of Buffer A (0.2% Triton-X 100, 1 mM PMSF, 0.5 mM EDTA, 10 mM Tris, pH 7.5) on ice and sonicated for 6-cycles of 15 seconds each on ice on a Sonifer 250 (Branson). This was then spun down at 13,000×g at 4° C. for 15 min and the cleared lysates were normalized with additional lysis buffer to 700 ng/4 and stored at −80° C. as aliquots. Protein concentrations were determined using the BioRad Protein Assay reagent according to the manufacturer's instructions.
as §1, §2

B1: TtHIDH-R118H: Thermus thermophilus homoisocitrate dehydrogenase R118H mutant (protein)
chain: MAYRICLIEGDGIGHEVIPAARRVLEATGLPLEFVEAEAGWETFERRGTSVPEETVEKILSCHATLFGAATSPTRKVPGFFGAIRYLRRRLDLYANVRPAKSRPVPGSRPGVDLVIVHENTEGLYVEQERRYLDVAIADAVISKKASERIGRAALRIAEGRPRKTLHIAHKANVLPLTQGLFLDTVKEVAKDFPLVNVQDIIVDNCAMQLVMRPERFDVIVTTNLLGDILSDLAAGLVGGLGLAPSGNIGDTTAVFEPVHGSAPDIAGKGIANPTAAILSAAMMLDYLGEKEAAKRVEKAVDLVLERGPRTPDLGGDATTEAFTEAVVEALKSL
modifications: TtHIDH R118H polypeptide
notes: Thermus thermophilus homoisocitrate dehydrogenase R118H mutant
increase of (R)-2-hydroxyadipate concentration after 2 h ([1]; 100 μM NADH, 15 mM 2-oxoadipate, 45° C.): 61.3 µM | increase of (S)-2-hydroxyadipate ([1]; same reaction): No increase | rate of NADH consumption with NaHCO3 added ([2]; TtHIDH, 2-oxoadipate and NADH, CO2 added as NaHCO3): 0.059 U | decrease of NADH concentration after 2 h ([3]; TtHIDH, 15 mM 2-oxoadipate, 45° C., 2 h): 61.3 µM | initial rate of NADH oxidation ([3]; TtHIDH, 15 mM 2-oxoadipate, 45° C., U = μmol NADH min^−1 mg^−1): 0.058±0.0031 U

B2: ScHIDH-V111D: Saccharomyces cerevisiae homoisocitrate dehydrogenase V111D mutant (protein)
chain: MFRSVATRLSACRGLASNAARKSLTIGLIPGDGIGKEVIPAGKQVLENLNSKHGLSFNFIDLYAGFQTFQETGKALPDETVKVLKEQCQGALFGAVQSPTTKVEGYSSPIDALRREMGLFANVRPVKSVEGEKGKPIDMVIVRENTEDLYIKIEKTYIDKATGTRVADATKRISEIATRRIATIALDIALKRLQTRGQATLTVTHKSNVLSQSDGLFREICKEVYESNKDKYGQIKYNEQIVDSMVYRLFREPQCFDVIVAPNLYGDILSDGAAALVGSLGVVPSANVGPEIVIGEPCHGSAPDIAGKGIANPIATIRSTALMLEFLGHNEAAQDIYKAVDANLREGSIKTPDLGGKASTQQVVDDVLSRL
modifications: ScHIDH V111D polypeptide
notes: Saccharomyces cerevisiae homoisocitrate dehydrogenase V111D mutant
2-hydroxyadipate dehydrogenase activity in crude bacterial lysates [4]: did not demonstrate 2-hydroxyadipate dehydrogenase activity

B3: ScHIDH-Y150D: Saccharomyces cerevisiae homoisocitrate dehydrogenase Y150D mutant (protein)
chain: MFRSVATRLSACRGLASNAARKSLTIGLIPGDGIGKEVIPAGKQVLENLNSKHGLSFNFIDLYAGFQTFQETGKALPDETVKVLKEQCQGALFGAVQSPTTKVEGYSSPIVALRREMGLFANVRPVKSVEGEKGKPIDMVIVRENTEDLDIKIEKTYIDKATGTRVADATKRISEIATRRIATIALDIALKRLQTRGQATLTVTHKSNVLSQSDGLFREICKEVYESNKDKYGQIKYNEQIVDSMVYRLFREPQCFDVIVAPNLYGDILSDGAAALVGSLGVVPSANVGPEIVIGEPCHGSAPDIAGKGIANPIATIRSTALMLEFLGHNEAAQDIYKAVDANLREGSIKTPDLGGKASTQQVVDDVLSRL
modifications: ScHIDH Y150D polypeptide
notes: Saccharomyces cerevisiae homoisocitrate dehydrogenase Y150D mutant
2-hydroxyadipate dehydrogenase activity in crude bacterial lysates [4]: did not demonstrate 2-hydroxyadipate dehydrogenase activity

B4: ScHIDH-R114Q: Saccharomyces cerevisiae homoisocitrate dehydrogenase R114Q mutant (protein)
chain: MFRSVATRLSACRGLASNAARKSLTIGLIPGDGIGKEVIPAGKQVLENLNSKHGLSFNFIDLYAGFQTFQETGKALPDETVKVLKEQCQGALFGAVQSPTTKVEGYSSPIVALQREMGLFANVRPVKSVEGEKGKPIDMVIVRENTEDLYIKIEKTYIDKATGTRVADATKRISEIATRRIATIALDIALKRLQTRGQATLTVTHKSNVLSQSDGLFREICKEVYESNKDKYGQIKYNEQIVDSMVYRLFREPQCFDVIVAPNLYGDILSDGAAALVGSLGVVPSANVGPEIVIGEPCHGSAPDIAGKGIANPIATIRSTALMLEFLGHNEAAQDIYKAVDANLREGSIKTPDLGGKASTQQVVDDVLSRL
modifications: ScHIDH R114Q polypeptide
notes: Saccharomyces cerevisiae homoisocitrate dehydrogenase R114Q mutant
2-hydroxyadipate dehydrogenase activity in crude bacterial lysates [4]: did not demonstrate 2-hydroxyadipate dehydrogenase activity

B5: ScHIDH-R115Q: Saccharomyces cerevisiae homoisocitrate dehydrogenase R115Q mutant (protein)
chain: MFRSVATRLSACRGLASNAARKSLTIGLIPGDGIGKEVIPAGKQVLENLNSKHGLSFNFIDLYAGFQTFQETGKALPDETVKVLKEQCQGALFGAVQSPTTKVEGYSSPIVALRQEMGLFANVRPVKSVEGEKGKPIDMVIVRENTEDLYIKIEKTYIDKATGTRVADATKRISEIATRRIATIALDIALKRLQTRGQATLTVTHKSNVLSQSDGLFREICKEVYESNKDKYGQIKYNEQIVDSMVYRLFREPQCFDVIVAPNLYGDILSDGAAALVGSLGVVPSANVGPEIVIGEPCHGSAPDIAGKGIANPIATIRSTALMLEFLGHNEAAQDIYKAVDANLREGSIKTPDLGGKASTQQVVDDVLSRL
modifications: ScHIDH R115Q polypeptide
notes: Saccharomyces cerevisiae homoisocitrate dehydrogenase R115Q mutant
NADH oxidation when CO2 was provided as NaHCO3 ([2]; purified enzyme, 15 mM 2-oxoadipate, 100 μM NADH, 0-42 mM NaHCO3): did oxidize NADH | 2-hydroxyadipate dehydrogenase activity in crude bacterial lysates [4]: did not demonstrate 2-hydroxyadipate dehydrogenase activity | NADH oxidation by purified enzyme in the presence of 2-oxoadipate ([3]; standard reaction conditions, 10 mM 2-oxoadipate, 20 mM MgCl2): behaved essentially the same as wild type; also recorded: did not oxidize NADH
